One substance from PMC4934132 can be followed below.

This assay concerns the target HPV16 L1 pentamers (L1 assembly mutant C428S) (HPV16). The experiment in a line: electron microscopy.

In general, stoichiometry N refers to a count of units in the complex or per binding partner.

“HPV16 L1 pentamers (L1 assembly mutant C428S) (natural protein)” returned a stoichiometry N of 5.
